Experiments:
Assay in all cases: SPOT array
Abp1, P15891 = molecular target: T1, Abp1, P15891; conditions: median of control spots 935
T1 sequence (P15891 535-592, looked up): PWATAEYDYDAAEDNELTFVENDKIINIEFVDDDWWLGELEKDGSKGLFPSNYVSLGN

Bbc1, P47068 = molecular target: T2, Bbc1, P47068; conditions: median of control spots 796
T2 sequence (P47068 1-78, looked up): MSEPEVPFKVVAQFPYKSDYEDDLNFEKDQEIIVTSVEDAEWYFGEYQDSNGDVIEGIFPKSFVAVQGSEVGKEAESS

Bem1-1, P29366 = conditions: median of control spots 4282
Bem1-1, P29366, sequence (P29366 55-141): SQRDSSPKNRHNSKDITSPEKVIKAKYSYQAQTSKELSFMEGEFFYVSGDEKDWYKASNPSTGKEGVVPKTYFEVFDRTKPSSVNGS

Bem1-2, P29366 = conditions: median of control spots 4347
Bem1-2, P29366, sequence (P29366 139-227): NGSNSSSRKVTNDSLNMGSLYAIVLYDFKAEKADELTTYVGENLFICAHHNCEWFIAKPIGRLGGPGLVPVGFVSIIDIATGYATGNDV

Boi1, P38041 = molecular target: T3, Boi1, P38041; conditions: median of control spots 1162
T3 sequence (P38041 1-86, looked up): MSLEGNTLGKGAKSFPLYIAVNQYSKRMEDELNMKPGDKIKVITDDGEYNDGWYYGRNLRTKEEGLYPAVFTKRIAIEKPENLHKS

Boi2, P39969 = molecular target: T4, Boi2, P39969; conditions: median of control spots 1161
T4 sequence (P39969 32-116, looked up): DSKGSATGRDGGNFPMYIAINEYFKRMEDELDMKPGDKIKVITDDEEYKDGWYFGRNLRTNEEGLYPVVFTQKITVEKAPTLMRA

Bud14, P27637 = molecular target: T5, Bud14, P27637; conditions: median of control spots 956
T5 sequence (P27637 247-328, looked up): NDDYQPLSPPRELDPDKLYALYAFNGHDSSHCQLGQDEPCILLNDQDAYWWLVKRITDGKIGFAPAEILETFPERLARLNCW

Bzz1-1, P38822 = molecular target: T6, Bzz1-1, P38822; conditions: median of control spots 4446
T6 sequence (P38822 478-572, looked up): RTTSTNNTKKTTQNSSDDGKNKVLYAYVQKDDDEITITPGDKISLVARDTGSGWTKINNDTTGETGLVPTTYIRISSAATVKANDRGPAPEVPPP

Bzz1-2, P38822 = molecular target: T7, Bzz1-2, P38822; conditions: median of control spots 4538
T7 sequence (P38822 568-633, looked up): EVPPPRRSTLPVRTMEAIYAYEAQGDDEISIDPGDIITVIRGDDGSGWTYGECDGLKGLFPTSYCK

Cdc25, P04821 = molecular target: T8, Cdc25, P04821; conditions: median of control spots 969
T8 sequence (P04821 50-136, looked up): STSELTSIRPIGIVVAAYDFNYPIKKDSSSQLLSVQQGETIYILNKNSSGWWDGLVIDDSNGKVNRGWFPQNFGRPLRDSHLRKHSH

Cyk3, Q07533 = molecular target: T9, Cyk3, Q07533; conditions: median of control spots 1451
T9 sequence (Q07533 1-83, looked up): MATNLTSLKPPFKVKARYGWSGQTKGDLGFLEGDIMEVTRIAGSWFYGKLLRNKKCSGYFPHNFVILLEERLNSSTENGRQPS

Fus1, P11710 = molecular target: T10, Fus1, P11710; conditions: median of control spots 1200
T10 sequence (P11710 432-512, looked up): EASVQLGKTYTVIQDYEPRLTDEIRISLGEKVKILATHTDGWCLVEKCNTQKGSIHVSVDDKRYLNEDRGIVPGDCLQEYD

GST = conditions: median of control spots 978
Hof1, Q05080 = molecular target: T11, Hof1, Q05080; conditions: median of control spots 4086
T11 sequence (Q05080 590-669, looked up): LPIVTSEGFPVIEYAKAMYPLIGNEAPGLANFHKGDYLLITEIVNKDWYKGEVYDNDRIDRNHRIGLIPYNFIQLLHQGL

Hse1, P38753 = molecular target: T12, Hse1, P38753; conditions: median of control spots 1727
T12 sequence (P38753 208-285, looked up): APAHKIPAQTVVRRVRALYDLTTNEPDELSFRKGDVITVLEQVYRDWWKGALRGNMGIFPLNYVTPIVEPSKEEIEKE

Lsb1, P53281 = molecular target: T13, Lsb1, P53281; conditions: median of control spots 388
T13 sequence (P53281 45-122, looked up): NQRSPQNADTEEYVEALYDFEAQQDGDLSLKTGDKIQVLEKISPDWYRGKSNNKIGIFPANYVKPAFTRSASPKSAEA

Lsb3, P43603 = molecular target: T14, Lsb3, P43603; conditions: median of control spots 406
T14 sequence (P43603 385-451, looked up): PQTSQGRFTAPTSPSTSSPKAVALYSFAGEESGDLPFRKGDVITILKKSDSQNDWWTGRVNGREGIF

Lsb4, P32793 = molecular target: T15, Lsb4, P32793; conditions: median of control spots 397
T15 sequence (P32793 402-468, looked up): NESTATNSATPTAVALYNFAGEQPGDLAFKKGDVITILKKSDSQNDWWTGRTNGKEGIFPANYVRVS

Myo3, P36006 = conditions: median of control spots 468
Myo5, Q04439 = molecular target: T16, Myo5, Q04439; conditions: median of control spots 471
T16 sequence (Q04439 1072-1160, looked up): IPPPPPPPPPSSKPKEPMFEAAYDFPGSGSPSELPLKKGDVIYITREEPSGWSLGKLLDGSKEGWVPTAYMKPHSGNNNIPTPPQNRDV

Nbp2, Q12163 = molecular target: T17, Nbp2, Q12163; conditions: median of control spots 357
T17 sequence (Q12163 103-180, looked up): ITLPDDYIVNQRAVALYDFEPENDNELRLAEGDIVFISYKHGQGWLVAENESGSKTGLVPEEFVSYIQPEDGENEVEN

Pex13, P80667 = molecular target: T18, Pex13, P80667; conditions: median of control spots 1341
T18 sequence (P80667 295-386, looked up): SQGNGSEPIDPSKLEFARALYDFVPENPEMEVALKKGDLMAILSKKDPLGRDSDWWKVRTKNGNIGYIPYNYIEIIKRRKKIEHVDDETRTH

Pin3, Q06449 = molecular target: T19, Pin3, Q06449; conditions: median of control spots 2171
T19 sequence (Q06449 53-122, looked up): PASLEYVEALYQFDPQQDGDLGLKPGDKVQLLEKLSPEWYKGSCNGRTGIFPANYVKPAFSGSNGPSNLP

Rvs167, P39743 = conditions: median of control spots 2707
Rvs167, P39743, sequence (P39743 419-482): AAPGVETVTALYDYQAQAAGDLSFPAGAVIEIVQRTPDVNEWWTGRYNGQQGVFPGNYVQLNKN

Sho1, P40073 = conditions: median of control spots 1148
Sho1, P40073, sequence (P40073 287-367): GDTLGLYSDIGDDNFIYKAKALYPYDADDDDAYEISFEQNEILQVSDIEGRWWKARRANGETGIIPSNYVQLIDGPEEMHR

Sla1-2, P32790 = molecular target: T20, Sla1-2, P32790; conditions: median of control spots 712
T20 sequence (P32790 60-140, looked up): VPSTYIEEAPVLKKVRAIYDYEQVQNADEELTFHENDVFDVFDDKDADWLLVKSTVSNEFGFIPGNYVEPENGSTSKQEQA

Sla1-3, P32790 = molecular target: T21, Sla1-3, P32790; conditions: median of control spots 5475
T21 sequence (P32790 344-424, looked up): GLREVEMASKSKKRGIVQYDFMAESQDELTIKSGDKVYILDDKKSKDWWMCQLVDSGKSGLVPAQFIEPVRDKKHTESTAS

| SPOT intensity (Abp1, P15891) | SPOT intensity (Bbc1, P47068) | SPOT intensity (Bem1-1, P29366) | SPOT intensity (Bem1-2, P29366) | SPOT intensity (Boi1, P38041) | SPOT intensity (Boi2, P39969) | SPOT intensity (Bud14, P27637) | SPOT intensity (Bzz1-1, P38822) | SPOT intensity (Bzz1-2, P38822) | SPOT intensity (Cdc25, P04821) | SPOT intensity (Cyk3, Q07533) | SPOT intensity (Fus1, P11710) | SPOT intensity (GST) | SPOT intensity (Hof1, Q05080) | SPOT intensity (Hse1, P38753) | SPOT intensity (Lsb1, P53281) | SPOT intensity (Lsb3, P43603) | SPOT intensity (Lsb4, P32793) | SPOT intensity (Myo3, P36006) | SPOT intensity (Myo5, Q04439) | further results | Binder |
| --- | --- | --- | --- | --- | --- | --- | --- | --- | --- | --- | --- | --- | --- | --- | --- | --- | --- | --- | --- | --- | --- |
| 0 | 0 | 3 | 11 | 0 | 0 | 8 | 45 | 27 | 0 | 0 | 0 | 1 | 2 | 10 | 0 | 0 | 1 | 0 | 0 | SPOT intensity (Nbp2, Q12163): 0; SPOT intensity (Pex13, P80667): 17; SPOT intensity (Pin3, Q06449): 17; SPOT intensity (Rvs167, P39743): 3340; SPOT intensity (Sho1, P40073): 0; SPOT intensity (Sla1-2, P32790): 0; SPOT intensity (Sla1-3, P32790): 14 | RRGPAPPPPPRASRP |
| 0 | 0 | 0 | 2 | 0 | 1 | 3 | 31 | 9 | 0 | 0 | 0 | 0 | 5 | 1 | 0 | 0 | 0 | 0 | 0 | SPOT intensity (Nbp2, Q12163): 1; SPOT intensity (Pex13, P80667): 75; SPOT intensity (Pin3, Q06449): 8; SPOT intensity (Rvs167, P39743): 1500; SPOT intensity (Sho1, P40073): 0; SPOT intensity (Sla1-2, P32790): 0; SPOT intensity (Sla1-3, P32790): 1 | RLPAPPPPPRRGPAP |
| 0 | 0 | 0 | 0 | 1 | 0 | 6 | 7 | 0 | 0 | 1 | 1 | 1 | 0 | 0 | 0 | 0 | 0 | 0 | 1 | SPOT intensity (Nbp2, Q12163): 0; SPOT intensity (Pex13, P80667): 56; SPOT intensity (Pin3, Q06449): 6; SPOT intensity (Rvs167, P39743): 514; SPOT intensity (Sho1, P40073): 0; SPOT intensity (Sla1-2, P32790): 2; SPOT intensity (Sla1-3, P32790): 0 | PAPPPPPRASRPTPN |

Source: publication PMC2756588
